Laboratory results published in article PMC3328371.

Target: Dock8 (endogenous) (UniProt Q8C147)
Experiment: anti-Flag co-IP, Dock8 immunoblot
Settings: reference: Flag-Mob1B wild type; sites T12,T35

binding against the reference: lost
Substance: Flag-Mob1B (previously MOBKL1A) (from UniProt Q7L9L4) Flag-Mob1B[Thr12Ala/Thr35Ala]
